T1: mTLR9-cECD (C-terminal proteolytic fragment of TLR9 ectodomain) (Mus musculus, UniProt Q9EQU3 474-824)
T1 sequence: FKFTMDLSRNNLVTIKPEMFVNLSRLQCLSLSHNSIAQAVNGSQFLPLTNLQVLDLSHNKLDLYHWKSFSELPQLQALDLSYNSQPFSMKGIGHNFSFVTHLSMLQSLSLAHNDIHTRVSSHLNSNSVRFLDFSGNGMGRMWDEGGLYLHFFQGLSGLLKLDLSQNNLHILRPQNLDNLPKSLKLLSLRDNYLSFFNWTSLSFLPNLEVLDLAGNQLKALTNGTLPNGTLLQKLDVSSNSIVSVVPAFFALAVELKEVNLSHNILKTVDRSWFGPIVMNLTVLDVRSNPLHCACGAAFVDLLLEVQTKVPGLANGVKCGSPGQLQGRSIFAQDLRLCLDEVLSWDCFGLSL


biological target: T1, mTLR9-cECD (C-terminal proteolytic …); assay: fluorescence anisotropy; 20 mM MES pH 5.6, 100 mM NaCl, 2 mM beta-mercaptoethanol, 25 C, 0.2 uM labelled R:D60, protein 10 nM-3.0 uM, 10 min equilibration

Binder | Kd [nM]
R:D60 (Cy3) (DNA:RNA) RNA: GUGUGUGUGUGUGUGUGUGUGUGUGUGUGUGUGUGUGUGUGUGUGUGUGUGUGUGUGUGU ?: ACACACACACACACACACACACACACACACACACACACACACACACACACACACACACAC | 27.2
Cy5-ssDNA60 (ssDNA) DNA: ACACACACACACACACACACACACACACACACACACACACACACACACACACACACACAC | 142
Cy3-ssRNA60 (ssRNA) RNA: GUGUGUGUGUGUGUGUGUGUGUGUGUGUGUGUGUGUGUGUGUGUGUGUGUGUGUGUGUGU | 1080

— publication PMC3989650
